Columns and labels:
[1] = biological target: 6His-PilC (Streptococcus sanguinis 2908); test: ITC
[2] = biological target: 6His-PilC (Streptococcus sanguinis 2908); test: SEC-MALS
SEC-MALS = biological target: the molecule itself; test: SEC-MALS

6His-PilA (from UniProt A0A0B7GNW3 33-164) (domain or fragment)
Kd [1]: 23.8 nM
stoichiometry N [2]: 1

PilA_(T95A) (from UniProt A0A0B7GNW3 33-164) (domain or fragment)
% of the wild-type binding (KD ratio to the WT) [1]: 38.3%

B1: 6His-PilA (domain or fragment, Streptococcus sanguinis 2908, UniProt A0A0B7GNW3 33-164, looked up)
chain: DTGQSQTQRMYNYLKAKYTATSGTQLAWGAYLDPVDGNPSSVYAEFDERAHNVDPSTEPIKSTHTFKDGSVAEIEMNGQLVDGLTGPENYNITIKSKSKLAGSNDYYEHIVTFNFDTKGIRSEEGHLRSAQK
stoichiometry N (SEC-MALS): 2

Reference: doi:10.1101/2022.08.25.505150 (bioRxiv, 2022)
